Reference: IntAct's records for PubMed 12832462

B1: Nuclear factor NF-kappa-B p105 subunit (Homo sapiens), P19838 (parent)
chain: MAEDDPYLGRPEQMFHLDPSLTHTIFNPEVFQPQMALPTDGPYLQILEQPKQRGFRFRYVCEGPSHGGLPGASSEKNKKSYPQVKICNYVGPAKVIVQLVTNGKNIHLHAHSLVGKHCEDGICTVTAGPKDMVVGFANLGILHVTKKKVFETLEARMTEACIRGYNPGLLVHPDLAYLQAEGGGDRQLGDREKELIRQAALQQTKEMDLSVVRLMFTAFLPDSTGSFTRRLEPVVSDAIYDSKAPNASNLKIVRMDRTAGCVTGGEEIYLLCDKVQKDDIQIRFYEEEENGGVWEGFGDFSPTDVHRQFAIVFKTPKYKDINITKPASVFVQLRRKSDLETSEPKPFLYYPEIKDKEEVQRKRQKLMPNFSDSFGGGSGAGAGGGGMFGSGGGGGGTGSTGPGYSFPHYGFPTYGGITFHPGTTKSNAGMKHGTMDTESKKDPEGCDKSDDKNTVNLFGKVIETTEQDQEPSEATVGNGEVTLTYATGTKEESAGVQDNLFLEKAMQLAKRHANALFDYAVTGDVKMLLAVQRHLTAVQDENGDSVLHLAIIHLHSQLVRDLLEVTSGLISDDIINMRNDLYQTPLHLAVITKQEDVVEDLLRAGADLSLLDRLGNSVLHLAAKEGHDKVLSILLKHKKAALLLDHPNGDGLNAIHLAMMSNSLPCLLLLVAAGADVNAQEQKSGRTALHLAVEHDNISLAGCLLLEGDAHVDSTTYDGTTPLHIAAGRGSTRLAALLKAAGADPLVENFEPLYDLDDSWENAGEDEGVVPGTTPLDMATSWQVFDILNGKPYEPEFTSDDLLAQGDMKQLAEDVKLQLYKLLEIPDPDKNWATLAQKLGLGILNNAFRLSPAPSKTLMDNYEVSGGTVRELVEALRQMGYTEAIEVIQAASSPVKTTSQAHSLPLSPASTRQQIDELRDSDSVCDSGVETSFRKLSFTESLTSGASLLTLNKMPHDYGQEGPLEGKI

Variants of: B1
Settings: with m3k8_human MAP3K8, P41279
m3k8_human MAP3K8, P41279, sequence (P41279 whole entry): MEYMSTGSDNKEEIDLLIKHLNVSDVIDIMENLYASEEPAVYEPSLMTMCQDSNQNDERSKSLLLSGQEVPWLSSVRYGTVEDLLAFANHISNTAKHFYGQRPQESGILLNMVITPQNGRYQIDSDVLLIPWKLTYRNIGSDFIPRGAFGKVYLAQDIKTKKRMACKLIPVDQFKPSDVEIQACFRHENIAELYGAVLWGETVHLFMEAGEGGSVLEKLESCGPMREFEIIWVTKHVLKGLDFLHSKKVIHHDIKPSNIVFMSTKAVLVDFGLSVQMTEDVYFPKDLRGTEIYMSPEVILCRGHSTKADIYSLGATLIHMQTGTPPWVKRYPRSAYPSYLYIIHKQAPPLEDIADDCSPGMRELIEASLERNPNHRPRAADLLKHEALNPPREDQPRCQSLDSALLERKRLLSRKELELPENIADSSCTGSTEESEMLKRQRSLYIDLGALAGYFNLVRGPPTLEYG

| Variant | effect of a mutation on the interaction |
| --- | --- |
| L841A | decreasing interaction |
